According to PMC9482650, “Quantitative fragmentomics allow affinity mapping of interactomes” (Nature Communications, 2022):

Legend:
Test in all cases: holdup assay
Set-up in all cases: key: below the threshold = too weak to quantify, mostly under pKd 3.1 to 4
MAGI2_6, Q86UL8 = molecular target: MAGI2_6, Q86UL8
FRMPD2_1, Q68DX3 = molecular target: FRMPD2_1, Q68DX3
PDZD7_3, Q9H5P4 = molecular target: T1, PDZD7_3, Q9H5P4
T1 sequence (Q9H5P4 857-944, limits assumed, looked up): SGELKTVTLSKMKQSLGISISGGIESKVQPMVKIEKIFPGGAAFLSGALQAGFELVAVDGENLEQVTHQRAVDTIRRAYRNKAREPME

MPDZ_5, O75970 = molecular target: T2, MPDZ_5, O75970
T2 sequence (O75970 695-796, limits assumed, looked up): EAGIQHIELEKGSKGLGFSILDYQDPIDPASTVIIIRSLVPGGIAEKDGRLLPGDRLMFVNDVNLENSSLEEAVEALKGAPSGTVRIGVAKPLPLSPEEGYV

Inadl_5, Q8NI35 = molecular target: Inadl_5, Q8NI35
Sequence of Inadl_5, Q8NI35 (Q8NI35 673-780): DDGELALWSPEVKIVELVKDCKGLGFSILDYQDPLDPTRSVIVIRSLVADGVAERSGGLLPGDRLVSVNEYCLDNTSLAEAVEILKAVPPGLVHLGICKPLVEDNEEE

FRMPD2_3, Q68DX3 = molecular target: FRMPD2_3, Q68DX3
Sequence of FRMPD2_3, Q68DX3 (Q68DX3 1073-1166): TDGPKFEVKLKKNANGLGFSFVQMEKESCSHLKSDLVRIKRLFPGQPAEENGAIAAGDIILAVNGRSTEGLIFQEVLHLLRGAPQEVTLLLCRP

SNTB1, Q13884 = molecular target: T3, SNTB1, Q13884
T3 sequence (Q13884 107-205, limits assumed, looked up): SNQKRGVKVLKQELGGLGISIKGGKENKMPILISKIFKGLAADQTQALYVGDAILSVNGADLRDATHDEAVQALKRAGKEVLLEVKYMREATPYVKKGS

FRMPD2_2, Q68DX3 = molecular target: FRMPD2_2, Q68DX3
Sequence of FRMPD2_2, Q68DX3 (Q68DX3 944-1038): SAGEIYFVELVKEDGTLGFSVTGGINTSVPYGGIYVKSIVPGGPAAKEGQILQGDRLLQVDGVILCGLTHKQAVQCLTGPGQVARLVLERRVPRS

SCRIB_2, Q14160 = molecular target: SCRIB_2, Q14160
Sequence of SCRIB_2, Q14160 (Q14160 857-960): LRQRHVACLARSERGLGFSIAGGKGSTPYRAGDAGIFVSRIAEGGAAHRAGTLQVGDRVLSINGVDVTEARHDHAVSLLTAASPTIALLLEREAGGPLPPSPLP

FRMPD1, Q5SYB0 = molecular target: T4, FRMPD1, Q5SYB0
T4 sequence (Q5SYB0 52-145, limits assumed, looked up): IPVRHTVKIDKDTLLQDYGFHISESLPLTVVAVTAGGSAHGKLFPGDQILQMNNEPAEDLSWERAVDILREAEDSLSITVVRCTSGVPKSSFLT

CASK, O14936 = molecular target: CASK, O14936
Sequence of CASK, O14936 (O14936 487-570): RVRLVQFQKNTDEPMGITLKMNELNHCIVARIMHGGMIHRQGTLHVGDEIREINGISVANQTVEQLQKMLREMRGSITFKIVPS

LIN7C, Q9NUP9 = molecular target: T5, LIN7C, Q9NUP9
T5 sequence (Q9NUP9 88-185, limits assumed, looked up): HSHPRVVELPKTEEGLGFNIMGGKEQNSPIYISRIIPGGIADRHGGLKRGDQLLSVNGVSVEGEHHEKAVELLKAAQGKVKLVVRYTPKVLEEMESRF

SHANK1, Q9Y566 = molecular target: T6, SHANK1, Q9Y566
T6 sequence (Q9Y566 658-767, limits assumed, looked up): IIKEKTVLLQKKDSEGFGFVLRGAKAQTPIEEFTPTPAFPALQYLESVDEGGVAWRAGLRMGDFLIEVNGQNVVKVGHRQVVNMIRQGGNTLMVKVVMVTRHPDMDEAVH

DLG3_3, Q92796 = molecular target: T7, DLG3_3, Q92796
T7 sequence (Q92796 374-475, limits assumed, looked up): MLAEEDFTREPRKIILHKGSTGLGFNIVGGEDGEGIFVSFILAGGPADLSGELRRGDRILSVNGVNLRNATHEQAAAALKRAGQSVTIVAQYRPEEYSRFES

Inadl_1, Q8NI35 = molecular target: Inadl_1, Q8NI35
Sequence of Inadl_1, Q8NI35 (Q8NI35 113-229): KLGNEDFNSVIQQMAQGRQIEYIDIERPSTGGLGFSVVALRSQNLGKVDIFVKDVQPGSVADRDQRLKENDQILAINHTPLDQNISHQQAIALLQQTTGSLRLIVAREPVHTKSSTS

GORASP1, Q9BQQ3 = molecular target: GORASP1, Q9BQQ3
Sequence of GORASP1, Q9BQQ3 (Q9BQQ3 1-208): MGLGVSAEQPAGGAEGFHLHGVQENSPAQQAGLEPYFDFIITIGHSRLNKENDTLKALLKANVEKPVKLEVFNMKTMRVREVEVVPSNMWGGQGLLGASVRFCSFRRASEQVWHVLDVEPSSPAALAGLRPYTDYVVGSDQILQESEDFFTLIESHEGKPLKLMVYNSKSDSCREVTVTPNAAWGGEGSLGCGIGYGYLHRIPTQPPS

MAGI2_4, Q86UL8 = molecular target: MAGI2_4, Q86UL8
Sequence of MAGI2_4, Q86UL8 (Q86UL8 772-865): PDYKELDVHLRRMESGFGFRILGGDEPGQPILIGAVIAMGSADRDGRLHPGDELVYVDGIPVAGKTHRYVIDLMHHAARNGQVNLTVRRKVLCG

DLG4_3, P78352 = molecular target: DLG4_3, P78352
Sequence of DLG4_3, P78352 (P78352 306-403): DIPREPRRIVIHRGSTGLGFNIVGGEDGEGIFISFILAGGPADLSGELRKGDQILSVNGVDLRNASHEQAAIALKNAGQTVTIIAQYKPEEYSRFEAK

DLG1_3, Q12959 = molecular target: DLG1_3, Q12959
Sequence of DLG1_3, Q12959 (Q12959 457-571): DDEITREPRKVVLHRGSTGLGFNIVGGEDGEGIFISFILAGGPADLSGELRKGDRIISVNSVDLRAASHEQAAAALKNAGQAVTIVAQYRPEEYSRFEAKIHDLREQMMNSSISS

GOPC, Q9HD26 = molecular target: GOPC, Q9HD26
APBA1_2, Q02410 = molecular target: T8, APBA1_2, Q02410
T8 sequence (Q02410 742-832, limits assumed, looked up): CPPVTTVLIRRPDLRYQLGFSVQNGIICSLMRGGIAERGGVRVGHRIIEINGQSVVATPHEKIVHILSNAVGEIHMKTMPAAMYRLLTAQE

LAP2, Q96RT1 = molecular target: LAP2, Q96RT1
Sequence of LAP2, Q96RT1 (Q96RT1 other isoform, or with tags, fused parts or gaps): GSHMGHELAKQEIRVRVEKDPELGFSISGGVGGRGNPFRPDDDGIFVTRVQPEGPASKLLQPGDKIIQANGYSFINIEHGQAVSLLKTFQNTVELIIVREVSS

NOS1, P29475 = molecular target: NOS1, P29475
Sequence of NOS1, P29475 (P29475 9-101): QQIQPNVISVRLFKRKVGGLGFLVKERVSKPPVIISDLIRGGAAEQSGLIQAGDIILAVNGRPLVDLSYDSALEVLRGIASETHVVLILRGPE

APBA2_1, Q99767 = molecular target: T9, APBA2_1, Q99767
T9 sequence (Q99767 563-664, limits assumed, looked up): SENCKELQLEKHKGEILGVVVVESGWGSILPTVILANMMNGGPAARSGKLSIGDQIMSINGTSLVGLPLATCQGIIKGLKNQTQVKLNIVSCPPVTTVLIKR

GRIP1_7, Q9Y3R0 = molecular target: T10, GRIP1_7, Q9Y3R0
T10 sequence (Q9Y3R0 999-1096, limits assumed, looked up): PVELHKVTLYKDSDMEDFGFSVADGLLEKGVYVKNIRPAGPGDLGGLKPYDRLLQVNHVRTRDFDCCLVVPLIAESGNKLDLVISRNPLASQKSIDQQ

LNX1_3, Q8TBB1 = molecular target: LNX1_3, Q8TBB1
Sequence of LNX1_3, Q8TBB1 (Q8TBB1 500-596): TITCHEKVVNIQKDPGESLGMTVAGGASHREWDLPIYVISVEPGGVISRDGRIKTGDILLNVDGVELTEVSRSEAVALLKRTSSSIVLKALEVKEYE

DVL3, Q92997 = molecular target: T11, DVL3, Q92997
T11 sequence (Q92997 244-331, limits assumed, looked up): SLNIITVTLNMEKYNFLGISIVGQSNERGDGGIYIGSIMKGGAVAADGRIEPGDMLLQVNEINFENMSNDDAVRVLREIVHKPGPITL

[1] = plain residues with an end cap or a label only (N-terminal biotin on a linker: ado-ado)
[2] = plain residues with an end cap or a label only (N-terminal biotin on a linker: ttds)
[3] = plain residues with an end cap or a label only (N-terminal biotin on a linker: none)
[4] = plain residues with an end cap or a label only (N-terminal biotin on a linker: gsgsgs; C-terminal amide)

Sequence of FRMPD2_1, Q68DX3 (Q68DX3 770-861): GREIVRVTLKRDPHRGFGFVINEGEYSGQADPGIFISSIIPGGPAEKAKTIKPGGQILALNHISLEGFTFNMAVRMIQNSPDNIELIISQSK
Sequence of MAGI2_6, Q86UL8 (Q86UL8 1141-1229): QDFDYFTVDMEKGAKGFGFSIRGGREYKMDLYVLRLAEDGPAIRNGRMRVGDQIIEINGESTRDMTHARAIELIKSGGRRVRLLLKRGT

B1: EPHA7, Q15375 (peptide)
chain: LHLHGTGIQV
pKd (MAGI2_6, Q86UL8; [1]): below the threshold | pKd (FRMPD2_1, Q68DX3; [1]): 5.03 | pKd (PDZD7_3, Q9H5P4; [1]): below the threshold | pKd (MPDZ_5, O75970; [1]): 4.1 | pKd (Inadl_5, Q8NI35; [1]): 4.04 | pKd (FRMPD2_3, Q68DX3; [1]): below the threshold | pKd (SNTB1, Q13884; [1]): below the threshold | pKd (FRMPD2_2, Q68DX3; [1]): below the threshold | pKd (SCRIB_2, Q14160; [1]): below the threshold | pKd (FRMPD1, Q5SYB0; [1]): below the threshold | pKd (CASK, O14936; [1]): below the threshold | pKd (LIN7C, Q9NUP9; [1]): 4.08 | pKd (SHANK1, Q9Y566; [1]): below the threshold | pKd (DLG3_3, Q92796; [1]): 3.51 | pKd (Inadl_1, Q8NI35; [1]): below the threshold | pKd (GORASP1, Q9BQQ3; [1]): 4.23 | pKd (MAGI2_4, Q86UL8; [1]): 3.83 | pKd (DLG4_3, P78352; [1]): below the threshold | pKd (DLG1_3, Q12959; [1]): 3.69 | pKd (GOPC, Q9HD26; [1]): below the threshold | pKd (APBA1_2, Q02410; [1]): 4.22 | pKd (LAP2, Q96RT1; [1]): 3.63 | pKd (NOS1, P29475; [1]): 4.24 | pKd (APBA2_1, Q99767; [1]): below the threshold | pKd (GRIP1_7, Q9Y3R0; [1]): 3.49 | pKd (LNX1_3, Q8TBB1; [1]): 3.48 | pKd (DVL3, Q92997; [1]): below the threshold

B2: ASIC3, Q9UHC3 (peptide)
chain: HRTCYLVTQL
pKd (MAGI2_6, Q86UL8; [2]): 4.11 | pKd (FRMPD2_1, Q68DX3; [2]): 3.37 | pKd (PDZD7_3, Q9H5P4; [2]): 5.47 | pKd (MPDZ_5, O75970; [2]): 3.4 | pKd (Inadl_5, Q8NI35; [2]): below the threshold | pKd (FRMPD2_3, Q68DX3; [2]): below the threshold | pKd (SNTB1, Q13884; [2]): 4.07 | pKd (FRMPD2_2, Q68DX3; [2]): 3.76 | pKd (SCRIB_2, Q14160; [2]): 3.73 | pKd (FRMPD1, Q5SYB0; [2]): below the threshold | pKd (CASK, O14936; [2]): below the threshold | pKd (LIN7C, Q9NUP9; [2]): 3.41 | pKd (SHANK1, Q9Y566; [2]): 4.91 | pKd (DLG3_3, Q92796; [2]): 3.49 | pKd (Inadl_1, Q8NI35; [2]): 3.52 | pKd (GORASP1, Q9BQQ3; [2]): 3.93 | pKd (MAGI2_4, Q86UL8; [2]): 3.75 | pKd (DLG4_3, P78352; [2]): 3.6 | pKd (DLG1_3, Q12959; [2]): 4.56 | pKd (GOPC, Q9HD26; [2]): 4.79 | pKd (APBA1_2, Q02410; [2]): 3.78 | pKd (LAP2, Q96RT1; [2]): 4.02 | pKd (NOS1, P29475; [2]): 3.75 | pKd (APBA2_1, Q99767; [2]): below the threshold | pKd (GRIP1_7, Q9Y3R0; [2]): below the threshold | pKd (LNX1_3, Q8TBB1; [2]): 3.55 | pKd (DVL3, Q92997; [2]): 3.3

B3: MERS-E, K9N5R3 (peptide)
chain: DSKPPLPPDEWV
pKd (MAGI2_6, Q86UL8; [3]): 4.75 | pKd (FRMPD2_1, Q68DX3; [3]): below the threshold | pKd (PDZD7_3, Q9H5P4; [3]): below the threshold | pKd (MPDZ_5, O75970; [3]): below the threshold | pKd (Inadl_5, Q8NI35; [3]): 3.74 | pKd (FRMPD2_3, Q68DX3; [3]): 3.53 | pKd (SNTB1, Q13884; [3]): 3.8 | pKd (FRMPD2_2, Q68DX3; [3]): below the threshold | pKd (SCRIB_2, Q14160; [3]): 3.58 | pKd (FRMPD1, Q5SYB0; [3]): below the threshold | pKd (CASK, O14936; [3]): 3.48 | pKd (LIN7C, Q9NUP9; [3]): below the threshold | pKd (SHANK1, Q9Y566; [3]): below the threshold | pKd (DLG3_3, Q92796; [3]): 3.58 | pKd (Inadl_1, Q8NI35; [3]): 3.61 | pKd (GORASP1, Q9BQQ3; [3]): 4.29 | pKd (MAGI2_4, Q86UL8; [3]): 3.73 | pKd (DLG4_3, P78352; [3]): 3.64 | pKd (DLG1_3, Q12959; [3]): 3.5 | pKd (GOPC, Q9HD26; [3]): 3.92 | pKd (APBA1_2, Q02410; [3]): 4.59 | pKd (LAP2, Q96RT1; [3]): 5.24 | pKd (NOS1, P29475; [3]): 3.99 | pKd (APBA2_1, Q99767; [3]): below the threshold | pKd (GRIP1_7, Q9Y3R0; [3]): 3.88 | pKd (LNX1_3, Q8TBB1; [3]): below the threshold | pKd (DVL3, Q92997; [3]): 3.78

B4: ARAP3_int, Q8WWN8 (peptide)
chain: ELIQDTSTSFSTTREW
pKd (MAGI2_6, Q86UL8; [4]): below the threshold | pKd (FRMPD2_1, Q68DX3; [4]): below the threshold | pKd (PDZD7_3, Q9H5P4; [4]): below the threshold | pKd (MPDZ_5, O75970; [4]): below the threshold | pKd (Inadl_5, Q8NI35; [4]): below the threshold | pKd (FRMPD2_3, Q68DX3; [4]): below the threshold | pKd (SNTB1, Q13884; [4]): below the threshold | pKd (FRMPD2_2, Q68DX3; [4]): below the threshold | pKd (SCRIB_2, Q14160; [4]): below the threshold | pKd (FRMPD1, Q5SYB0; [4]): below the threshold | pKd (CASK, O14936; [4]): below the threshold | pKd (LIN7C, Q9NUP9; [4]): 4.11 | pKd (SHANK1, Q9Y566; [4]): 4.4 | pKd (DLG3_3, Q92796; [4]): below the threshold | pKd (Inadl_1, Q8NI35; [4]): below the threshold | pKd (GORASP1, Q9BQQ3; [4]): below the threshold | pKd (MAGI2_4, Q86UL8; [4]): below the threshold | pKd (DLG4_3, P78352; [4]): below the threshold | pKd (DLG1_3, Q12959; [4]): below the threshold | pKd (GOPC, Q9HD26; [4]): below the threshold | pKd (APBA1_2, Q02410; [4]): below the threshold | pKd (LAP2, Q96RT1; [4]): below the threshold | pKd (NOS1, P29475; [4]): below the threshold | pKd (APBA2_1, Q99767; [4]): below the threshold | pKd (GRIP1_7, Q9Y3R0; [4]): below the threshold | pKd (LNX1_3, Q8TBB1; [4]): below the threshold | pKd (DVL3, Q92997; [4]): below the threshold
